According to patent publication US20250171562A1:

B1: NIgG4F6A1(RS) (Fc fusion)
chain 1: DVQLQESGGGLVQAGGSLRLSCAASGLTFGSYDMGWYRQAPGKQRELVGRIRNDGITYYADSVKGRFTMSRDNAKNTVYLQMNSLKPEDTAVYYCAADGTGLGHYDYWGQGTQVTVSRSGPPCPPCPAPEFLGGPSVFLFPPKPKDTLMISRTPEVTCVVVDVSQEDPEVQFNWYVDGVEVHNAKTKPREEQFNSTYRVVSVLTVLHQDWLNGKEYKCKVSNKGLPSSIEKTISKAKGQPREPQVYTLPPCQEEMTKNQVSLWCLVKGFYPSDIAVEWESNGQPENNYKTTPPVLDSDGSFFLYSRLTVDKSRWQEGNVFSCSVMHEALHNHYTQKSLSLSLGK
chain 2: EVQLLESGGGLVQPGGSLRLSCAASGFTFGNYDMAWVRQAPGKRPEWVSSIDTGGDITHYADSVKGRFTISRDNAKNTLYLQMNSLRPEDTAVYWCATDEEYALGPNEFDYYGQGTLVTVSSRSGPPCPPCPAPEFLGGPSVFLFPPKPKDTLMISRTPEVTCVVVDVSQEDPEVQFNWYVDGVEVHNAKTKPREEQFNSTYRVVSVLTVLHQDWLNGKEYKCKVSNKGLPSSIEKTISKAKGQPREPQVCTLPPSQEEMTKNQVSLSCAVKGFYPSDIAVEWESNGQPENNYKTTPPVLDSDGSFFLVSRLTVDKSRWQEGNVFSCSVMHEALHNHYTQKSLSLSLGK
B2: NIgG4F6A1(G4S)2 (Fc fusion)
chain 1: DVQLQESGGGLVQAGGSLRLSCAASGLTFGSYDMGWYRQAPGKQRELVGRIRNDGITYYADSVKGRFTMSRDNAKNTVYLQMNSLKPEDTAVYYCAADGTGLGHYDYWGQGTQVTVSGGGGSGGGGSGPPCPPCPAPEFLGGPSVFLFPPKPKDTLMISRTPEVTCVVVDVSQEDPEVQFNWYVDGVEVHNAKTKPREEQFNSTYRVVSVLTVLHQDWLNGKEYKCKVSNKGLPSSIEKTISKAKGQPREPQVYTLPPCQEEMTKNQVSLWCLVKGFYPSDIAVEWESNGQPENNYKTTPPVLDSDGSFFLYSRLTVDKSRWQEGNVFSCSVMHEALHNHYTQKSLSLSLGK
chain 2: EVQLLESGGGLVQPGGSLRLSCAASGFTFGNYDMAWVRQAPGKRPEWVSSIDTGGDITHYADSVKGRFTISRDNAKNTLYLQMNSLRPEDTAVYWCATDEEYALGPNEFDYYGQGTLVTVSSGGGGSGGGGSGPPCPPCPAPEFLGGPSVFLFPPKPKDTLMISRTPEVTCVVVDVSQEDPEVQFNWYVDGVEVHNAKTKPREEQFNSTYRVVSVLTVLHQDWLNGKEYKCKVSNKGLPSSIEKTISKAKGQPREPQVCTLPPSQEEMTKNQVSLSCAVKGFYPSDIAVEWESNGQPENNYKTTPPVLDSDGSFFLVSRLTVDKSRWQEGNVFSCSVMHEALHNHYTQKSLSLSLGK
B3: CIgG4F5A1(G4S)2 (Fc fusion)
chain 1: GPPCPPCPAPEFLGGPSVFLFPPKPKDTLMISRTPEVTCVVVDVSQEDPEVQFNWYVDGVEVHNAKTKPREEQFNSTYRVVSVLTVLHQDWLNGKEYKCKVSNKGLPSSIEKTISKAKGQPREPQVYTLPPCQEEMTKNQVSLWCLVKGFYPSDIAVEWESNGQPENNYKTTPPVLDSDGSFFLYSRLTVDKSRWQEGNVFSCSVMHEALHNHYTQKSLSLSLGKGGGGSGGGGSDVQLQESGGGLVQPGGSLRLSCAASGSIFSIDIMGWYRQAPGKQRELVATMPEGNYINYADSVKGRLTLSRDKGKNTVYLQLNSLKPEDTAVYYCYGFGVREGRGNVYWGQGTQVTVS
chain 2: GPPCPPCPAPEFLGGPSVFLFPPKPKDTLMISRTPEVTCVVVDVSQEDPEVQFNWYVDGVEVHNAKTKPREEQFNSTYRVVSVLTVLHQDWLNGKEYKCKVSNKGLPSSIEKTISKAKGQPREPQVCTLPPSQEEMTKNQVSLSCAVKGFYPSDIAVEWESNGQPENNYKTTPPVLDSDGSFFLVSRLTVDKSRWQEGNVFSCSVMHEALHNHYTQKSLSLSLGKGGGGSGGGGSEVQLLESGGGLVQPGGSLRLSCAASGFTFGNYDMAWVRQAPGKRPEWVSSIDTGGDITHYADSVKGRFTISRDNAKNTLYLQMNSLRPEDTAVYWCATDEEYALGPNEFDYYGQGTLVTVSS
B4: CIgG4F6A1(RS) (Fc fusion)
chain 1: GPPCPPCPAPEFLGGPSVFLFPPKPKDTLMISRTPEVTCVVVDVSQEDPEVQFNWYVDGVEVHNAKTKPREEQFNSTYRVVSVLTVLHQDWLNGKEYKCKVSNKGLPSSIEKTISKAKGQPREPQVYTLPPCQEEMTKNQVSLWCLVKGFYPSDIAVEWESNGQPENNYKTTPPVLDSDGSFFLYSRLTVDKSRWQEGNVFSCSVMHEALHNHYTQKSLSLSLGKRSDVQLQESGGGLVQAGGSLRLSCAASGLTFGSYDMGWYRQAPGKQRELVGRIRNDGITYYADSVKGRFTMSRDNAKNTVYLQMNSLKPEDTAVYYCAADGTGLGHYDYWGQGTQVTVS
chain 2: GPPCPPCPAPEFLGGPSVFLFPPKPKDTLMISRTPEVTCVVVDVSQEDPEVQFNWYVDGVEVHNAKTKPREEQFNSTYRVVSVLTVLHQDWLNGKEYKCKVSNKGLPSSIEKTISKAKGQPREPQVCTLPPSQEEMTKNQVSLSCAVKGFYPSDIAVEWESNGQPENNYKTTPPVLDSDGSFFLVSRLTVDKSRWQEGNVFSCSVMHEALHNHYTQKSLSLSLGKRSEVQLLESGGGLVQPGGSLRLSCAASGFTFGNYDMAWVRQAPGKRPEWVSSIDTGGDITHYADSVKGRFTISRDNAKNTLYLQMNSLRPEDTAVYWCATDEEYALGPNEFDYYGQGTLVTVSS
B5: CIgG4F5A1(G4S)3 (Fc fusion)
chain 1: GPPCPPCPAPEFLGGPSVFLFPPKPKDTLMISRTPEVTCVVVDVSQEDPEVQFNWYVDGVEVHNAKTKPREEQFNSTYRVVSVLTVLHQDWLNGKEYKCKVSNKGLPSSIEKTISKAKGQPREPQVYTLPPCQEEMTKNQVSLWCLVKGFYPSDIAVEWESNGQPENNYKTTPPVLDSDGSFFLYSRLTVDKSRWQEGNVFSCSVMHEALHNHYTQKSLSLSLGKGGGGSGGGGSGGGGSDVQLQESGGGLVQPGGSLRLSCAASGSIFSIDIMGWYRQAPGKQRELVATMPEGNYINYADSVKGRLTLSRDKGKNTVYLQLNSLKPEDTAVYYCYGFGVREGRGNVYWGQGTQVTVS
chain 2: GPPCPPCPAPEFLGGPSVFLFPPKPKDTLMISRTPEVTCVVVDVSQEDPEVQFNWYVDGVEVHNAKTKPREEQFNSTYRVVSVLTVLHQDWLNGKEYKCKVSNKGLPSSIEKTISKAKGQPREPQVCTLPPSQEEMTKNQVSLSCAVKGFYPSDIAVEWESNGQPENNYKTTPPVLDSDGSFFLVSRLTVDKSRWQEGNVFSCSVMHEALHNHYTQKSLSLSLGKGGGGSGGGGSGGGGSEVQLLESGGGLVQPGGSLRLSCAASGFTFGNYDMAWVRQAPGKRPEWVSSIDTGGDITHYADSVKGRFTISRDNAKNTLYLQMNSLRPEDTAVYWCATDEEYALGPNEFDYYGQGTLVTVSS
B6: NIgG4F6A1(G4S)1 (Fc fusion)
chain 1: DVQLQESGGGLVQAGGSLRLSCAASGLTFGSYDMGWYRQAPGKQRELVGRIRNDGITYYADSVKGRFTMSRDNAKNTVYLQMNSLKPEDTAVYYCAADGTGLGHYDYWGQGTQVTVSGGGGSGPPCPPCPAPEFLGGPSVFLFPPKPKDTLMISRTPEVTCVVVDVSQEDPEVQFNWYVDGVEVHNAKTKPREEQFNSTYRVVSVLTVLHQDWLNGKEYKCKVSNKGLPSSIEKTISKAKGQPREPQVYTLPPCQEEMTKNQVSLWCLVKGFYPSDIAVEWESNGQPENNYKTTPPVLDSDGSFFLYSRLTVDKSRWQEGNVFSCSVMHEALHNHYTQKSLSLSLGK
chain 2: EVQLLESGGGLVQPGGSLRLSCAASGFTFGNYDMAWVRQAPGKRPEWVSSIDTGGDITHYADSVKGRFTISRDNAKNTLYLQMNSLRPEDTAVYWCATDEEYALGPNEFDYYGQGTLVTVSSGGGGSGPPCPPCPAPEFLGGPSVFLFPPKPKDTLMISRTPEVTCVVVDVSQEDPEVQFNWYVDGVEVHNAKTKPREEQFNSTYRVVSVLTVLHQDWLNGKEYKCKVSNKGLPSSIEKTISKAKGQPREPQVCTLPPSQEEMTKNQVSLSCAVKGFYPSDIAVEWESNGQPENNYKTTPPVLDSDGSFFLVSRLTVDKSRWQEGNVFSCSVMHEALHNHYTQKSLSLSLGK
B7: NIgG4F6A1(G4S)3 (Fc fusion)
chain 1: DVQLQESGGGLVQAGGSLRLSCAASGLTFGSYDMGWYRQAPGKQRELVGRIRNDGITYYADSVKGRFTMSRDNAKNTVYLQMNSLKPEDTAVYYCAADGTGLGHYDYWGQGTQVTVSGGGGSGGGGSGGGGSGPPCPPCPAPEFLGGPSVFLFPPKPKDTLMISRTPEVTCVVVDVSQEDPEVQFNWYVDGVEVHNAKTKPREEQFNSTYRVVSVLTVLHQDWLNGKEYKCKVSNKGLPSSIEKTISKAKGQPREPQVYTLPPCQEEMTKNQVSLWCLVKGFYPSDIAVEWESNGQPENNYKTTPPVLDSDGSFFLYSRLTVDKSRWQEGNVFSCSVMHEALHNHYTQKSLSLSLGK
chain 2: EVQLLESGGGLVQPGGSLRLSCAASGFTFGNYDMAWVRQAPGKRPEWVSSIDTGGDITHYADSVKGRFTISRDNAKNTLYLQMNSLRPEDTAVYWCATDEEYALGPNEFDYYGQGTLVTVSSGGGGSGGGGSGGGGSGPPCPPCPAPEFLGGPSVFLFPPKPKDTLMISRTPEVTCVVVDVSQEDPEVQFNWYVDGVEVHNAKTKPREEQFNSTYRVVSVLTVLHQDWLNGKEYKCKVSNKGLPSSIEKTISKAKGQPREPQVCTLPPSQEEMTKNQVSLSCAVKGFYPSDIAVEWESNGQPENNYKTTPPVLDSDGSFFLVSRLTVDKSRWQEGNVFSCSVMHEALHNHYTQKSLSLSLGK
B8: CIgG4F6A1(G4S)1 (Fc fusion)
chain 1: GPPCPPCPAPEFLGGPSVFLFPPKPKDTLMISRTPEVTCVVVDVSQEDPEVQFNWYVDGVEVHNAKTKPREEQFNSTYRVVSVLTVLHQDWLNGKEYKCKVSNKGLPSSIEKTISKAKGQPREPQVYTLPPCQEEMTKNQVSLWCLVKGFYPSDIAVEWESNGQPENNYKTTPPVLDSDGSFFLYSRLTVDKSRWQEGNVFSCSVMHEALHNHYTQKSLSLSLGKGGGGSDVQLQESGGGLVQAGGSLRLSCAASGLTFGSYDMGWYRQAPGKQRELVGRIRNDGITYYADSVKGRFTMSRDNAKNTVYLQMNSLKPEDTAVYYCAADGTGLGHYDYWGQGTQVTVS
chain 2: GPPCPPCPAPEFLGGPSVFLFPPKPKDTLMISRTPEVTCVVVDVSQEDPEVQFNWYVDGVEVHNAKTKPREEQFNSTYRVVSVLTVLHQDWLNGKEYKCKVSNKGLPSSIEKTISKAKGQPREPQVCTLPPSQEEMTKNQVSLSCAVKGFYPSDIAVEWESNGQPENNYKTTPPVLDSDGSFFLVSRLTVDKSRWQEGNVFSCSVMHEALHNHYTQKSLSLSLGKGGGGSEVQLLESGGGLVQPGGSLRLSCAASGFTFGNYDMAWVRQAPGKRPEWVSSIDTGGDITHYADSVKGRFTISRDNAKNTLYLQMNSLRPEDTAVYWCATDEEYALGPNEFDYYGQGTLVTVSS

Biological target: mixture of three Der p 2 specific recombinant human IgE clones H10, H12, P4E (human) (UniProt P01854)
Assay: RBL-SX38 IgE displacement, FACS

Sequence of mixture of three Der p 2 specific recombinant human IgE clones H10, H12, P4E (human) (P01854 other isoform, or with tags, fused parts or gaps): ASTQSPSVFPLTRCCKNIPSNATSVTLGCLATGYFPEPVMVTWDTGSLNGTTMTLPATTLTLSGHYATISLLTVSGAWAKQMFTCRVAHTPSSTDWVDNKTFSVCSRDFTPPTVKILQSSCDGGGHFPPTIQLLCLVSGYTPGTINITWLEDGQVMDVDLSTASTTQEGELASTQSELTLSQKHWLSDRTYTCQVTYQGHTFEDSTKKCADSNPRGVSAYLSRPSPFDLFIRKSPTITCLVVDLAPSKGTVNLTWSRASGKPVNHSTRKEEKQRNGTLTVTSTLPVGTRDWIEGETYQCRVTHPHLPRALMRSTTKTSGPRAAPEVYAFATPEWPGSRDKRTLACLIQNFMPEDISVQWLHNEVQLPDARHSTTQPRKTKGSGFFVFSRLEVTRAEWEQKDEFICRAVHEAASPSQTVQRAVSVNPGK

EC50 [nM]	Max effect/effect 1 µM [%]	Binder
3.2	26	B1
2.3	76	B2
–	25	B3
–	96	B4
–	27	B5
2.2	68	B6
2.7	87	B7
59.9	95	B8
